{"source": "patent US10000542", "about": "(Novo Nordisk, dated 2018)", "binders": {"B1": {"name": "N^ε26-[(2S)-2-amino-6-[[2-[2-[2-[[2-[2-[2-[[(4S)-4-carboxy-4-[12-(4-carboxyphenoxy)dodecanoylamino]butanoyl]amino]ethoxy]ethoxy]acetyl]amino]ethoxy]ethoxy]acety … (peptide)", "peptide": "H[Aib]EGTFTSDVSSYLEEQAAK([εLys-AEEA-AEEA-γGlu-Dodecanoyl(12-OPh(4-COOH))])EFIAWLVRGRK([εLys-AEEA-AEEA-γGlu-Dodecanoyl(12-OPh(4-COOH))])"}, "B2": {"name": "N^ε26-[(2S)-2-amino-6-[[(2S)-2-amino-6-[[(4S)-4-carboxy-4-(13-carboxytridecanoylamino)butanoyl]amino]hexanoyl]amino]hexanoyl], … (peptide)", "peptide": "HXEGTFTSDVSSYLEGQAAKEFIAWLVHGRK", "modifications": "Aib at 8; Lys 26 and Lys 37 each acylated at the epsilon-amino group with the side chain given in the name (numbering of GLP-1(7-37), His = 7)"}, "B3": {"name": "N^ε26-[(2S)-2-amino-6-[[(2S)-2-amino-6-[[(4S)-4-carboxy-4-[12-(4-carboxyphenoxy)dodecanoylamino]butanoyl]amino]hexanoyl]amino]hexanoyl], … (peptide)", "peptide": "B2 peptide with H28Q", "modifications": "Aib at 8; Lys 26 and Lys 37 each acylated at the epsilon-amino group with the side chain given in the name (numbering of GLP-1(7-37), His = 7)"}, "B4": {"name": "N^ε26-[(2S)-6-[[(2S)-6-[[(4S)-4-carboxy-4-[11-(4-carboxyphenoxy)undecanoylamino]butanoyl]amino]-2-(dimethylamino)hexanoyl]amino]-2-(dimethylamino)hexanoyl], … (peptide)", "peptide": "B2 peptide with H1X, H28R", "modifications": "not fully specified; Imp (imidazopropionyl, des-amino histidine) at 7; Aib at 8; Lys 26 and Lys 37 each acylated at the epsilon-amino group with the side chain given in the name (numbering of GLP-1(7-37))"}, "B5": {"name": "N^ε26-[(2S)-2-amino-6-[[(2S)-2-[[2-[[(2S)-2-[[(4S)-4-carboxy-4-[12-(4-carboxyphenoxy)dodecanoylamino]butanoyl]amino]-3-hydroxypropanoyl]amino]acetyl]amino]-3-hy … (peptide)", "peptide": "B2 peptide with H1X, H28R", "modifications": "Imp (imidazopropionyl, des-amino histidine) at 7; Aib at 8; Lys 26 and Lys 37 each acylated at the epsilon-amino group with the side chain given in the name (numbering of GLP-1(7-37))"}, "B6": {"name": "N^ε26-[(2S)-2-amino-6-[[2-[2-[2-[[2-[2-[2-[[(4S)-4-carboxy-4-[11-(4-carboxyphenoxy)undecanoylamino]butanoyl]amino]ethoxy]ethoxy]acetyl]amino]ethoxy]ethoxy]acety … (peptide)", "peptide": "H[Aib]EGTFTSDVSSYLEEQAAK([εLys-AEEA-AEEA-γGlu-Undecanoyl(11-OPh(4-COOH))])EFIAWLVRGRK([εLys-AEEA-AEEA-γGlu-Undecanoyl(11-OPh(4-COOH))])"}, "B7": {"name": "N^ε26-[(2S)-2-amino-6-[[(2S)-2-amino-6-[[(4S)-4-carboxy-4-[10-(4-carboxyphenoxy)decanoylamino]butanoyl]amino]hexanoyl]amino]hexanoyl], … (peptide)", "peptide": "B2 peptide with W25H, H28Q", "modifications": "Aib at 8; Lys 26 and Lys 37 each acylated at the epsilon-amino group with the side chain given in the name (numbering of GLP-1(7-37), His = 7)"}, "B8": {"name": "N^ε26-[(2S)-2-amino-6-[[(2S)-2-amino-6-[[(4S)-4-carboxy-4-[11-(4-carboxyphenoxy)undecanoylamino]butanoyl]amino]hexanoyl]amino]hexanoyl], … (peptide)", "peptide": "B2 peptide with W25H, H28Q", "modifications": "Aib at 8; Lys 26 and Lys 37 each acylated at the epsilon-amino group with the side chain given in the name (numbering of GLP-1(7-37), His = 7)"}, "B9": {"name": "N^ε26-[(2S)-2-amino-6-[[(4S)-4-carboxy-4-[[(4S)-4-carboxy-4-[11-(4-carboxyphenoxy)undecanoylamino]butanoyl]amino]butanoyl]amino]hexanoyl], … (peptide)", "peptide": "H[Aib]EGTFTSDVSSYLEEQAAK([εLys-γGlu-γGlu-Undecanoyl(11-OPh(4-COOH))])EFIEWLVRGRK([εLys-γGlu-γGlu-Undecanoyl(11-OPh(4-COOH))])"}, "B10": {"name": "Comparative compound (WO2011/080103) Example 4 (peptide)", "peptide": "B2 peptide with H28R", "modifications": "Aib at 8; 26K and 37K acylated: protracting moiety C14 diacid, linker gGlu-2xOEG (numbering of GLP-1(7-37), His = 7)", "notes": "X stands for Aib"}, "B11": {"name": "N^ε26-[(2S)-2-amino-6-[[(4S)-4-carboxy-4-[[(4S)-4-carboxy-4-[11-(4-carboxyphenoxy)undecanoylamino]butanoyl]amino]butanoyl]amino]hexanoyl], … (peptide)", "peptide": "H[Aib]EGTFTSDVSSYLEEQAAK([εLys-γGlu-γGlu-Undecanoyl(11-OPh(4-COOH))])EFIEWLVRGRK([εLys-γGlu-γGlu-Undecanoyl(11-OPh(4-COOH))])E", "notes": "X stands for Aib"}}, "note": "Substitutions are numbered along the chain they refer to. Numbered stars: 1 amine (or outer) side, 2 acyl side, 3 side chain; on linkers, the order of the positions; unused ones are H or OH. Square brackets hold non-standard residues; d marks the D form. Side chains are listed from the residue outwards. Ends that are not written are not given here. * marks the point of attachment. Dodecanoyl(12-OPh(4-COOH)) = O=C(O)c1ccc(OCCCCCCCCCCCC(=O)*)cc1; Undecanoyl(11-OPh(4-COOH)) = O=C(O)c1ccc(OCCCCCCCCCCC(=O)*)cc1; γGlu = O=C(O)[C@H](CCC(=O)[*:2])N[*:1]; εLys = N[C@@H](CCCCN[*:1])C(=O)[*:2]; AEEA = NCCOCCOCC(=O)O; Aib = CC(C)(N)C(=O)O"}
{"biological_target": "T1, human GLP-1 receptor (human, UniProt P43220 24-463)", "assay": "cell-based or functional assay", "units": {"EC50/pM, In vitro potency (AlphaScreen)": "pM"}}
{"binder": "B1", "EC50/pM, In vitro potency (AlphaScreen)": 369}
{"binder": "B2", "EC50/pM, In vitro potency (AlphaScreen)": 48}
{"binder": "B3", "EC50/pM, In vitro potency (AlphaScreen)": 116}
{"biological_target": "T1, human GLP-1 receptor", "assay": "cell-based or functional assay", "remark": "another data set of the same source", "units": {"EC50/pM (0% HSA), In vitro potency (CRE luciferase)": "pM", "EC50/pM (1% HSA), In vitro potency (CRE luciferase)": "pM"}}
{"binder": "B4", "EC50/pM (0% HSA), In vitro potency (CRE luciferase)": 7.9}
{"binder": "B5", "EC50/pM (0% HSA), In vitro potency (CRE luciferase)": 9.4}
{"binder": "B6", "EC50/pM (0% HSA), In vitro potency (CRE luciferase)": 5.5, "EC50/pM (1% HSA), In vitro potency (CRE luciferase)": 70}
{"binder": "B7", "EC50/pM (0% HSA), In vitro potency (CRE luciferase)": 11}
{"binder": "B1", "EC50/pM (0% HSA), In vitro potency (CRE luciferase)": 3.6, "EC50/pM (1% HSA), In vitro potency (CRE luciferase)": 141}
{"binder": "B2", "EC50/pM (0% HSA), In vitro potency (CRE luciferase)": 7.8, "EC50/pM (1% HSA), In vitro potency (CRE luciferase)": 80}
{"binder": "B8", "EC50/pM (0% HSA), In vitro potency (CRE luciferase)": 7.2}
{"binder": "B3", "EC50/pM (0% HSA), In vitro potency (CRE luciferase)": 8.7, "EC50/pM (1% HSA), In vitro potency (CRE luciferase)": 633}
{"binder": "B9", "EC50/pM (0% HSA), In vitro potency (CRE luciferase)": 1.5, "EC50/pM (1% HSA), In vitro potency (CRE luciferase)": 391}
{"biological_target": "human serum albumin (HSA) (human, UniProt P02768 25-609)", "sequence (P02768 25-609 limits assumed)": "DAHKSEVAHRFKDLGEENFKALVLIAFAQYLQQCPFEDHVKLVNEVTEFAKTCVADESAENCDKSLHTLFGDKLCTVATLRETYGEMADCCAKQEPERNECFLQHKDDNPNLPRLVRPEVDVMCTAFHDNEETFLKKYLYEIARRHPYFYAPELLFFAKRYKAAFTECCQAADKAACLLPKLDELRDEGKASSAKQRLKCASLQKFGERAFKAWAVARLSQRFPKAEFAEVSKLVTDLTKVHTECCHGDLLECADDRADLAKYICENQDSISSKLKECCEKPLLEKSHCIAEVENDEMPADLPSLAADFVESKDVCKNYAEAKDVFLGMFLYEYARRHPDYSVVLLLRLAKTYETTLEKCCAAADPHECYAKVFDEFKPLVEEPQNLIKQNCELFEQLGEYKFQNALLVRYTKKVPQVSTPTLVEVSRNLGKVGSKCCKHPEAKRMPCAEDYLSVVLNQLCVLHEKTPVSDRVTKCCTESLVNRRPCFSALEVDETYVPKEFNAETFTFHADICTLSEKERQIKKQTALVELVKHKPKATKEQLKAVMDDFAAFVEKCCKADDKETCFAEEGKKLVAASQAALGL", "assay": "cell-based or functional assay", "units": {"EC50 (ratio 1% HSA/0% HSA), CRE luciferase": "ratio"}}
{"binder": "B2", "EC50 (ratio 1% HSA/0% HSA), CRE luciferase": 10.3}
{"binder": "B3", "EC50 (ratio 1% HSA/0% HSA), CRE luciferase": 72}
{"binder": "B9", "EC50 (ratio 1% HSA/0% HSA), CRE luciferase": 260}
{"biological_target": "T1, human GLP-1 receptor", "assay": "cell-based or functional assay", "remark": "another data set of the same source", "units": {"In vitro potency (Example 44) EC50/pM": "pM", "In vitro potency (Example 45) (0% HSA) EC50/pM": "pM", "In vitro potency (Example 45) (1% HSA) EC50/pM": "pM"}}
{"binder": "B10", "In vitro potency (Example 44) EC50/pM": 366, "In vitro potency (Example 45) (0% HSA) EC50/pM": 46, "In vitro potency (Example 45) (1% HSA) EC50/pM": 92}
{"binder": "B7", "In vitro potency (Example 45) (0% HSA) EC50/pM": 11, "In vitro potency (Example 45) (1% HSA) EC50/pM": 162}
{"biological_target": "T1, human GLP-1 receptor", "assay": "SPA displacement of [125I]-GLP-1(7-36)NH2 from BHK membranes with human GLP-1 receptor, high HSA (2.0%)", "description": "(§1) 50 ul (micro liter) HSA (\"high albumin\" experiment containing 2% HSA), or buffer (\"low albumin\" experiment containing 0.001% HSA) was added to Optiplate, and 25 ul of test compounds were added. 5-10 ug membrane protein/sample was added (50 ul) corresponding to 0.1-0.2 mg protein/ml (to be preferably optimised for each membrane preparation). SPA-particles (Wheatgerm agglutinin SPA beads, Perkin Elmer, #RPNQ0001) were added in an amount of 0.5 mg/well (50 ul). […] The plates were sealed with PlateSealer and incubated for 120 minutes at 30° C. while shaking. The plates were centrifuged (1500 rpm, 10 min) and counted in Topcounter.", "units": {"IC50": "nM"}}
{"binder": "B6", "IC50": 251}
{"binder": "B1", "IC50": 484}
{"binder": "B2", "IC50": 71}
{"binder": "B3", "IC50": 321}
{"binder": "B9", "IC50": 641}
{"binder": "B11", "IC50": 123}
{"biological_target": "T1, human GLP-1 receptor", "assay": "SPA displacement of [125I]-GLP-1(7-36)NH2 from BHK membranes with human GLP-1 receptor, high HSA (2.0%)", "remark": "another data set of the same source", "units": {"IC50": "nM"}}
{"binder": "B10", "IC50": 357}
{"binder": "B7", "IC50": 27}
{"biological_target": "T1, human GLP-1 receptor", "assay": "SPA displacement of [125I]-GLP-1(7-36)NH2 from BHK membranes with human GLP-1 receptor, low HSA (0.001%)", "description": "as §1", "units": {"IC50": "nM"}}
{"binder": "B10", "IC50": 6.02}
{"binder": "B6", "IC50": 0.26}
{"binder": "B7", "IC50": 1.57}
{"binder": "B2", "IC50": 0.93}
{"binder": "B3", "IC50": 0.64}
{"binder": "B9", "IC50": 0.03}
{"binder": "B11", "IC50": 0.02}
